Source: PMC4339652 (2015)

Target: T1, G3p N1 (Filamentous phage, UniProt O80297)
T1 chain: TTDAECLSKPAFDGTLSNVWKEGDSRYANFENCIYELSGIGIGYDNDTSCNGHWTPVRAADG
Assay: SPR

B1: TolA TolAIII (protein)
chain: GGGAKGNNASPAGSGNTKNNGASGADINNYAGQIKSAIESKFYDASSYAGKTCTLRIKLAPDGMLLDIKPEGGDPALCQAALAAAKLAKIPKPPSQAVYEVFKNAPLDFKP
Kd: 14.9 µM
